Laboratory results published in patent publication US20220323580A1 (Janssen / Centocor, published 2022).

Assays:
[1] = target: T1, recombinant human TNFα (human, UniProt P01375 77-233, 125I-labeled in the receptor blocking assay); assay: competition radioligand assay: mAb in hybridoma supernatant preincubated with 5 ng/ml 125I-TNFα, then cpm bound to plate-coated p55-sf2 counted; blocked partner p55-sf2
T1 construct: It is not tied to the protein used in the assays, so it is not used here; also called huTNFα; tumor necrosis factor alpha
Experimental: Each sample was tested in duplicate. The results shown are representative of two independent experiments.
(§1) 50:1 of p55-sf2 at 0.5:g/ml in PBS was added to Optiplates to coat the wells during a one-hour incubation at 37° C. Serial dilutions of the eight TNV cell supernatants were prepared in 96-well round-bottom plates using PBS/0.1% BSA as diluent. […] The mixture was preincubated for one hour at RT. […] After 2 hrs at RT, Optiplates were washed three times with PBS-Tween. […] of Microscint-20 was added and the cpm bound determined using the TopCount […].

[2] = target: T1, recombinant human TNFα; assay: competition: 125I-TNFα binding to plate-coated p55-sf2, hybridoma supernatant
Experimental: as §1
The concentrations of the TNV mAbs in their respective cell supernatants were first determined by standard ELISA analysis for human IgG.

[3] = target: T1, recombinant human TNFα; assay: cell-based or functional assay

| IC50 (read off the curve) [1] [ng/mL] | fold better at blocking TNF binding (vs TNV118 and TNV14) [2] [fold] | neutralizing TNFα bioactivity [3] | Binder |
| --- | --- | --- | --- |
| ~4 | – | – | TNV15 (antibody, human IgG1, V domains shown, Totally human IgG1 kappa mAb from the GenTNV fusion, tested as hybridoma supernatant; also called GenTNV15.28.11; C415A) VH: QVQLVESGGGVVQPGRSLRLSCAASGFTFSSYAMHWVRQAPGKGLEWVAFILYDGSNKKYADSVKGRFTISRDNSKNALYLQMNSLRAEDTAVYYCARDRGVSAGGNYYYYGMDVWGQGTTVTVSS VL: EIVLTQSPATLSLSPGERATLSCRASQSVSSYLAWYQQKPGQAPRLLIYDASNRATGIPARFSGSGSGTDFTLTISSLEPEDFAVYYCQQRSNWPPFTFGPGTKVDIK |
| ~4 | ~4 | 4 fold (vs TNV14) | TNV148 (antibody, V domains shown, also called GenTNV148.26.12; C420A) VH: QVQLVESGGGVVQPGRSLRLSCAASGFIFSSYAMHWVRQAPGNGLEWVAFMSYDGSNKKYADSVKGRFTISRDNPKNTLYLQMNSLRAEDTAVYYCARDRGIAAGGNYYYYGMDVWGQGTTVTVSS VL: EIVLTQSPATLSLSPGERATLSCRASQSVYSYLAWYQQKPGQAPRLLIYDASNRATGIPARFSGSGSGTDFTLTISSLEPEDFAVYYCQQRSNWPPFTFGPGTKVDIK |
| ~4 | – | 4 fold (vs TNV14) | TNV196 (antibody, human IgG1, V domains shown, Totally human IgG1 kappa mAb from the GenTNV fusion, tested as hybridoma supernatant; also called GenTNV196.9.1; C421A) VH: QVQLVESGGGVVQPGRSLRLSCAASGFTFSSYAMHWVRQAPGKGLEWVAFISYDGSNKKSADSVKGRFTVSRDNSKNTLFLQMNSLRAEDTAVFYCARDRGIGAGGNYYYYGMDVWGQGTTVTVSS VL: EIVLTQSPATLSLSPGERATLSCRASQSVYSYLAWYQQKPGQAPRLLIYDASNRATGIPARFSGSGSGTDFTLTISSLEPEDFAVYYCQQRSNWPPFTFGPGTKVDIK |
| – | ~4 | – | TNV86 (antibody, V domains shown, also called GenTNV86.14.34; C417A) VH: QVQLVESGGGVVQPGRSLRLSCAASGFIFSSYAMHWVRQAPGNGLEWVAFMSYDGSNKKYADSVKGRFTISRDNPKNTLYLQMNSLRAEDTAVYYCARDRGIAAGGNYYYYGMDVWGQGTTVTVSS VL: EIVLTQSPATLSLSPGERATLSCRASQSVYSYLAWYQQKPGQAPRLLIYDASNRATGIPARFSGSGSGTDFTLTISSLEPEDFAVYYCQQRSNWPPFTFGPGTKVDIK |
